Experimental data: patent US20040126856A1, “Factor ixa: factor Vllla interaction and methods therefor” (priority 2004, published 2004)
Each block holds one molecule with its values, some of them ahead of it.

Assays:
[1] = molecular target: T1, A2 subunit of factor VIIIa (Homo sapiens, UniProt P00451); experiment: Apparent KdA2 of dEGR-IXa proteins: inhibition of IXaWT:A2 subunit interaction in the tenase system; assay type: biochemical; settings: 100 nM IXaWT, 30 nM A2 subunit, 250 nM factor X, 25 μM PL; from IC50 by Eq. 3 (FIG. 3); read-out: Apparent KdA2
T1 construct: cleaved by thrombin at R372-S373, R740-S741, and R1689-S1690 to yield factor VIIIa
T1 sequence (P00451 392-759): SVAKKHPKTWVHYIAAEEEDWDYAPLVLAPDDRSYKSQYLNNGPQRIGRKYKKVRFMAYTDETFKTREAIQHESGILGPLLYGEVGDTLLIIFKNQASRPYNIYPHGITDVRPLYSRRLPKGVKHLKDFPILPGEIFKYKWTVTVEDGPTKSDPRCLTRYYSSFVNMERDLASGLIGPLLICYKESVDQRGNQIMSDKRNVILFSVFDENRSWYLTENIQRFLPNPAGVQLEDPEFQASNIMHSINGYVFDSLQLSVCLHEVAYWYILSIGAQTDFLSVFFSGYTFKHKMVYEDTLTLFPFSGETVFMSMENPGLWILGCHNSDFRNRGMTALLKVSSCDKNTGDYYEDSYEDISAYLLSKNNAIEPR
Description: Determination of KdA2 of Binding of dEGR-IXa Proteins to A2 Subunit.
The apparent Kd (termed KdA2) for binding of each dEGR-IXa protein to the A2 subunit was determined by its ability to inhibit factor IXaWT:A2 subunit interaction in the tenase complex as described earlier for intact factor VIIIa (Mather and Bajaj, 1999; Mather et al., 1997). The reactions were carried out as described for the EC50 experiments above except dEGR-IXa and IXaWT were mixed prior to addition of the A2 subunit; this ensured steady state conditions. Mixtures contained 100 nM IXaWT, 30 nM A2 subunit, 250 nM factor X, 25 μM PL, and various concentrations of dEGR-IXa proteins in TBS/BSA, pH 7.5 containing 5 mM CaCl2. The IC50 (concentration of inhibitor required for 50% inhibition) was determined by fitting the data to the IC50 four-parameter logistic equation of Halfman (1981) given below (Eq. 2). [formula]
where y is the rate of Xa formation in the presence of a given concentration of dEGR-IXa protein represented by x, a is the maximum rate of factor Xa formation in the absence of dEGR-IXa, and s is the slope factor. Each point was weighted equally, and the data were fitted to Equation 2 using the nonlinear regression analysis program GraFit from Erithacus Software. […] To obtain KdA2 values for the interaction of dEGR-IXa proteins with A2, we used the following equation (Eq. 3) as described by Cheng and Prusoff (1973) and further elaborated by Craig (1993). [formula]
where A is the concentration of IXaWT, and EC50 is the concentration of factor IXaWT that gives a 50% maximum response in the absence of the competitor at a specified concentration of factor X used in the experiment.

[2] = tested on: T2, A2 subunit of factor VIIIa
T2 sequence: T1 sequence (P00451 392-759)

[3] = molecular target: A2 subunit of factor VIIIa (human) (UniProt P00451); experiment: potentiation of factor X activation by A2 subunit (FIGS. 1 and 2); functional Kd
[4] = molecular target: A2 subunit of factor VIIIa (human) (UniProt P00451); experiment: factor Xa generation at rising A2 subunit, 5 nM IXa; factor X >1 µM; functional Kd
[5] = molecular target: A2 subunit of factor VIIIa (human) (UniProt P00451); experiment: factor Xa generation at rising A2 subunit, 5 nM IXa; factor X <150 nM; functional Kd
[6] = molecular target: T3, dEGR-IXaVIIhelix (factor IXaVIIhelix inactivated with dansyl-Glu-Gly-Arg-chloromethyl ketone) (human, UniProt P08709 364-372, active site inactivated with dansyl-Glu-Gly-Arg-chloromethyl ketone (dEGR-ck); gamma-carboxyglutamic acid residues in the Gla domain (normal Gla content)); experiment: dEGR-IXa competition with 100 nM IXaWT for 30 nM A2 in tenase assay (FIG. 3); apparent KdA2
T3 construct: domain: helix c162-170; also called dEGR-IXVIIhelix

[7] = molecular target: T4, dEGR-IXaPCEGF1 (factor IXaPCEGF1 inactivated with dansyl-Glu-Gly-Arg-chloromethyl ketone) (human, UniProt P04070 88-134, limits assumed, active site inactivated with dansyl-Glu-Gly-Arg-chloromethyl ketone (dEGR-ck); gamma-carboxyglutamic acid residues in the Gla domain (normal Gla content)); experiment: dEGR-IXa competition with 100 nM IXaWT for 30 nM A2 in tenase assay (FIG. 3); IC50 converted by Cheng-Prusoff; apparent KdA2
T4 construct: domain: EGF1

[8] = molecular target: T5, dEGR-IXaWT (factor IXaWT inactivated with dansyl-Glu-Gly-Arg-chloromethyl ketone) (human, UniProt P00740 47-190; P00740 227-461, active site inactivated with dansyl-Glu-Gly-Arg-chloromethyl ketone (dEGR-ck); gamma-carboxyglutamic acid residues in the Gla domain (normal Gla content)); experiment: as above
T5 construct: also called dEGR-IXWT

[9] = molecular target: dEGR-IXaR333Q (factor IXaR333Q inactivated with dansyl-Glu-Gly-Arg-chloromethyl ketone) (human, UniProt P00740 47-190; P00740 227-461, active site inactivated with dansyl-Glu-Gly-Arg-chloromethyl ketone (dEGR-ck); gamma-carboxyglutamic acid residues in the Gla domain (normal Gla content)); experiment: as above
[10] = molecular target: T4, dEGR-IXaPCEGF1 (factor IXaPCEGF1 …); experiment: dansyl fluorescence quenching, 220 nM dEGR-IXa titrated with A2 subunit, bimolecular association fit (FIG. 4)
Description: (§1) The effect of the A2 subunit on the emission intensity of the dansyl moiety in each dEGR-IXa protein was determined using the SLM AB2 spectrofluorometer. Each reaction mixture contained 220 nM dEGR-IXa in 20 mM Hepes, pH 7.2, 100 mM NaCl, 5 mM CaCl₂, 0.01% Tween, 200 μg/ml BSA and 100 μM PL vesicles. The excitation wavelength was 340 nm (slit width, 8 nm) and the emission wavelength was 540 nm (slit width; 8 nm). First, blank values (in triplicate) were obtained for the buffer containing PL. dEGR-IXa was then added and the emission intensity in the absence of the A2 subunit was recorded. Each reaction mixture was subsequently titrated with the A2 subunit and the emission readings (in triplicate) were obtained at each time point. The fluorescence emission intensity at each point was corrected for increases in the reaction volume prior to analysis of the data. […] Data are presented as F/F₀ where F₀ is the emission intensity in the absence of A2 subunit and F is the intensity at a given A2 subunit concentration.

[11] = molecular target: T5, dEGR-IXaWT (factor IXaWT inactivated …); experiment: as above
Description: as §1

T5 sequence (P00740 47-190, form in doubt, chain 1 of 2): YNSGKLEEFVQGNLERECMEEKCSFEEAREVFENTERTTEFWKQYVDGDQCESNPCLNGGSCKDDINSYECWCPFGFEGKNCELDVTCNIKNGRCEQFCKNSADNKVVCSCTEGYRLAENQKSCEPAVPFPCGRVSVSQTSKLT
T5 sequence (P00740 227-461, form in doubt, chain 2 of 2): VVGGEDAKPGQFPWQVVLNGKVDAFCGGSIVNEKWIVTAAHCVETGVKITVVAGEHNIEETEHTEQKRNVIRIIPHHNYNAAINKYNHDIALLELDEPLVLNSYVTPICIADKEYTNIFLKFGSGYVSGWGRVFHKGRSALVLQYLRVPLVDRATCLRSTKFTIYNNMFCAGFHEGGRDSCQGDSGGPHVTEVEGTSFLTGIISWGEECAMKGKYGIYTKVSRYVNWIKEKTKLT
T4 sequence (P04070 other isoform, or with tags, fused parts or gaps limits assumed, form in doubt, chain 1 of 2): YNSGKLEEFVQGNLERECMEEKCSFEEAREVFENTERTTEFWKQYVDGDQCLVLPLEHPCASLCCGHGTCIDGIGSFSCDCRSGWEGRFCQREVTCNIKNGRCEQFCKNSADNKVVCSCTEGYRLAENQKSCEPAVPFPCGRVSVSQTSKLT
T4 sequence (heavy, as listed by the source limits assumed, form in doubt, chain 2 of 2): as the sequence (P00740 227-461, form in doubt, chain 2 of 2) above
dEGR-IXaR333Q (factor IXaR333Q inactivated with dansyl-Glu-Gly-Arg-chloromethyl ketone), sequence (P00740 47-190, form in doubt, chain 1 of 2): as the sequence (P00740 47-190, form in doubt, chain 1 of 2) above
dEGR-IXaR333Q (factor IXaR333Q inactivated with dansyl-Glu-Gly-Arg-chloromethyl ketone), sequence (P00740 227-461 R379Q, form in doubt, chain 2 of 2): as the sequence (P00740 227-461, form in doubt, chain 2 of 2) above, with R153Q counted along it
T3 sequence (light, as listed by the source limits assumed, form in doubt, chain 1 of 2): as the sequence (P00740 47-190, form in doubt, chain 1 of 2) above
T3 sequence (heavy, as listed by the source limits assumed, form in doubt, chain 2 of 2): as the sequence (P00740 227-461, form in doubt, chain 2 of 2) above, with L150R, V151L, D152M, R153T, A154Q, T155D, R158Q counted along it

Kd [1]: ~100 nM
Molecule: dEGR-IXaPCEGF1: IXaPCEGF1 inactivated with dEGR-ck

Kd [1]: ~1800 nM
Molecule: dEGR-IXaR333Q: IXaR333Q inactivated with dEGR-ck

Kd [1]: ~100 nM
Molecule: dEGR-IXaWT: IXaWT inactivated with dansyl-Glu-Gly-Arg-chloromethyl ketone (dEGR-ck)

Molecule: factor IXaPCEGF1 (factor IXa replacement mutant in which the EGF1 domain is replaced by that of protein C)
enhancement of factor X activation (factor Xa generation, S-2222 hydrolysis) [2]: The presence of the A2 subunit in the reaction mixtures enhanced the factor X-activating activity of IXaPCEGF1 to the same extent as that of IXaWT

EC50 [3]: 250 nM
EC50 [4]: 200 nM
EC50 [5]: 300 nM
Molecule: factor IXaPCEGF1 (factor IXa replacement mutant in which the EGF1 domain is replaced by that of protein C) (from UniProt P04070 88-134) (enzyme)

Molecule: factor IXaVIIhelix (factor IXa replacement mutant in which helix 330-338 (c162-170) is replaced by that of factor VII)
enhancement of factor X activation (factor Xa generation, S-2222 hydrolysis) [2]: it was absent for the IXaVIIhelix

Molecule: factor IXaWT (wild-type recombinant factor IX activated by factor XIa)
enhancement of factor X activation (factor Xa generation, S-2222 hydrolysis) [2]: The presence of the A2 subunit in the reaction mixtures enhanced the factor X-activating activity of IXaPCEGF1 to the same extent as that of IXaWT

Kd [6]: > 1000 nM
Kd [7]: 114 nM
Kd [8]: 100 nM
Kd [9]: 1850 nM
Kd [10]: ~100 nM
Kd [11]: ~100 nM
B1: A2 subunit of factor VIIIa (other)
chain: T1 sequence (P00451 392-759)
notes: also called isolated A2 subunit
